Results published in US20240199757A1 (UNIVERSITY OF CHICAGO, published 2024).
Numbering of substitutions follows the chain as printed.

T1: Full-length human NT5E (recombinant, in-house) (human, UniProt P21589 27-549)
T1 construct: also called hNT5E; hNT5EWT
T1 sequence: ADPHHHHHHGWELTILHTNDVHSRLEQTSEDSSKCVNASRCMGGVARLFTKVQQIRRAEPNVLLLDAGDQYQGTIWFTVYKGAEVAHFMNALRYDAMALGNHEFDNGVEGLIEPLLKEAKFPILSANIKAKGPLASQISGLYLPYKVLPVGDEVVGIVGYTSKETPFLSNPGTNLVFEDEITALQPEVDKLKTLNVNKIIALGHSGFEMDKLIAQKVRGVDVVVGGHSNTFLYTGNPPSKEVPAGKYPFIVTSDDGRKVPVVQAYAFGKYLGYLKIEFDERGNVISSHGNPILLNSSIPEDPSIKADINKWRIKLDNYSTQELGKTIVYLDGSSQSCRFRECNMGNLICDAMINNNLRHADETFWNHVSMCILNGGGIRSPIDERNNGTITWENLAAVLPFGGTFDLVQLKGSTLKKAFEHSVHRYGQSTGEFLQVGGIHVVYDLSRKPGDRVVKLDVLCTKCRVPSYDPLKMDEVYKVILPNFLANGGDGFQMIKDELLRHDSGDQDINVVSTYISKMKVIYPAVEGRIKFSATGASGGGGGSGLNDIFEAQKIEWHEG

T2: Full-length cynomolgus NT5E (recombinant) (cynomolgus, UniProt P21589 27-549 (human entry))
T2 construct: also called cNT5E; cyno NT5E
T2 chain: T1 sequence with M209T, T363M, V476I

T3: murine NT5E expressed on 4T1 cells (murine, UniProt Q61503 29-551)
T3 construct: whole, on cells; also called mouse NT5E-expressing 4T1 cells
T3 sequence (looked up): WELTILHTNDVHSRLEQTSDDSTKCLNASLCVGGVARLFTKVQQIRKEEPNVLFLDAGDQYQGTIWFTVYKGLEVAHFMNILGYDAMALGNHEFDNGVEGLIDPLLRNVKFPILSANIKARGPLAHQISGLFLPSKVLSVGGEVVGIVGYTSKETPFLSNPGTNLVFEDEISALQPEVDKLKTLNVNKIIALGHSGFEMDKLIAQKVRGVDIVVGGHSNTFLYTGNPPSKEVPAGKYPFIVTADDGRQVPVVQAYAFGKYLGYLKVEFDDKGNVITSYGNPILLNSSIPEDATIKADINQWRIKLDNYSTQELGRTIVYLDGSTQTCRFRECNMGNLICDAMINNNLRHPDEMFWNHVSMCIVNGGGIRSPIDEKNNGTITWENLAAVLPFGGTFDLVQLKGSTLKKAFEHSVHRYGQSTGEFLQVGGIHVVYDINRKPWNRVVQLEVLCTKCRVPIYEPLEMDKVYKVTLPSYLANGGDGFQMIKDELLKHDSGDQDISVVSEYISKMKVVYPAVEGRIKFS

B1: 1789 Fab (Fab, V domains shown)
VH: EVQLVESGGGLVQPGGSLRLSCAASGFNVSYSSIHWVRQAPGKGLEWVASISSSSGYTYYADSVKGRFTISADTSKNTAYLQMNSLRAEDTAVYYCARNYWGWYPFYYFAFDYWGQGTLVTV
VL: DIQMTQSPSSLSASVGDRVTITCRASQSVSSAVAWYQQKPGKAPKLLIYSASSLYSGVPSRFSGSRSGTDFTLTISSLQPEDFATYYCQQGWDYPITFGQGTKVEIKR
B2: 1789 IgG (antibody, V domains shown)
VH: EVQLVESGGGLVQPGGSLRLSCAASGFNVSYSSIHWVRQAPGKGLEWVASISSSSGYTYYADSVKGRFTISADTSKNTAYLQMNSLRAEDTAVYYCARNYWGWYPFYYFAFDYWGQGTLVTVSS
VL: B1 VL

Legend:
[1] = biological target: T1, Full-length human NT5E (recombinant, …); test: DSF thermal shift, 1.5-fold molar excess of Fab, 1 mM ATP (NT5E alone 59° C. and 64° C.)
Protocol: With 1 mM ATP alone (red dashed line), the TM shifts from one transition at 49° C. to two transitions at TM 59° C. and 64° C. […] Thermal shift assays of substrate binding knock-out variants hNT5EDF (FIG. 2B) and hNT5EFF (FIG. 2C) show no change in thermal stability with the addition of ATP.
Thermal stability of samples was analyzed by differential scanning fluorimetry (DSF) using a real-time PCR instrument (Bio-Rad CFX384). Protein samples were mixed with 4× Sypro Orange at a final 4 μM concentration. For target/Fab complexes, 1.5-fold molar excess of Fab was used. All reactions were performed in triplicates in a 384-well plate. Thermal melting curves were monitored from 25° C. to 95° C. in steps of 0.5° C./30 s. Wavelengths of 490 and 575 nm were used for excitation and emission, respectively. The melting temperatures were inferred from the first derivative of the melting curves from the mean of triplicate runs using CFX software provided by the manufacturer.

[2] = biological target: T2, Full-length cynomolgus NT5E …; test: SPR, His-captured NT5E, no ATP; SPR, No ATP
Protocol: All SPR experiments were performed at 25° C. using MASS-1 (Bruker) instrument. hNT5E, mNT5E and cNT5E were immobilized onto a nitrilotriacetic acid (NTA) sensor chip via His-tag. For kinetic experiments, after ligand immobilization, 2-fold serial dilutions of the Fabs were injected. After double-reference subtraction data were analyzed with BiaEvaluation (GE Healthcare) or Sierra Analyser (Bruker) software. The experiments were carried in buffers in presence and absence of 1 mM ATP to compare the kinetic parameters of the Fabs binding to closed and open form of NT5E.

[3] = biological target: T3, murine NT5E expressed on 4T1 cells; test: flow cytometry on 4T1 cells, 1 mM ATP; +ATP (1 mM), 4T1 cells
Protocol: Human MDA-MB-231 cells and murine 4T1 cells were grown to 90% confluency, detached with 5 mM EDTA for 15 min at 37° C. and then resuspended in 37° C. lx PBS (#10010031, Gibco) supplemented with 1% FBS and 1OpM ZnCl2. Separate working buffers (WB) of PBS and 1% FBS with or without fixed nucleotide concentrations were used throughout all washing steps to maintain constant condition. In 96-well plates (#3799, Costar), 0.2×10⁶ cells were added per well. The plates were spun at 500×g for 5 min and the supernatant was removed. Anti-NT5E antibodies were diluted to the desired concentration in 100 μL WB, added to the cells and the plates were incubated for 20 min at 37° C. Plates were spun and cells were washed twice with WB then spun a second time. Cells were stained with 100 μL of secondary antibody (Alexa Fluor 647 AffiniPure Goat Anti-Human IgG, F(ab′)2 fragment specific, #109-605-006, Jackson, 1:200) dilution and plates were incubated for 20 min at 37° C. Cells were washed twice with WB then fixed on ice with WB supplemented with 0.5% PFA. Fixing solution was removed by centrifugation and cells were resuspended in cold 1× PBS. Samples were analyzed by flow cytometry using CytoFLEX (Beckman Coulter) and mean fluorescence intensity (MFI) data was extracted using FlowJo software. Resulting binding data was plotted using OriginLab.

| Binder | TM of NT5E in the presence of the Fab [1] [° C.] | kon [2] [M⁻¹ s⁻¹] | EC50 [3] [µM] |
| --- | --- | --- | --- |
| B1 | 66 | 140000 |  |
| B2 |  |  | 0.037 |
